In paper PMC4164784, “4E-BPs require non-canonical 4E-binding motifs and a lateral surface of eIF4E to repress translation” (Nature Communications, 2014):
No end group written: not given here.

What was measured:
[1] = molecular target: T1, Dm eIF4E II-AA mutant (I96A, I112A; residues 69–248) (Drosophila melanogaster, UniProt P48598, I107A/I123A); assay: ITC, binding to eIF4E II-AA mutant (residues 69–248); details: for affinity for eIF4E II-AA mutant relative to WT (in words): bipartite peptides (C+NC) or eIF4G, lateral-surface mutant vs WT
T1 construct: The solution of eIF4E (residues 69–248, WT or mutant: 1–20 μM) in the calorimetric cell; His6 (N, cleaved yes); made in house; host or cells: E. coli BL21 Star (DE3)
T1 sequence (P48598 80-259 I107A/I123A): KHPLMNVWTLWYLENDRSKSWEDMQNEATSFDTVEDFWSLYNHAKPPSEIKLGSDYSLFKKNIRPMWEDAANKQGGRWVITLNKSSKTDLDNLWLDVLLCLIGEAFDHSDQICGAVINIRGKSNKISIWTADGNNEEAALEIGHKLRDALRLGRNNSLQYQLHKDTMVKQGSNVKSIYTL
Procedure: (§1) Unless indicated otherwise, all the proteins were expressed in E. coli BL21 Star (DE3) cells (Invitrogen) that were grown in LB medium overnight at 20 °C. The lysis buffers were supplemented with DNaseI (5 μg ml^−1), lysozyme (1 mg ml^−1) and protease inhibitor cocktail (Roche). The truncated His6-eIF4E (residues 69–248) that was used in the ITC experiments and in Figs 2c and 5b was purified in lysis buffer containing 50 mM HEPES (pH 7.2), 300 mM NaCl, 20 mM imidazole and 2 mM β-mercaptoethanol using Ni^2+-affinity chromatography (HisTrap HP 5 ml, GE Healthcare) and eluted with a gradient of 20–500 mM imidazole. After the cleavage of the His6-tag with HRV3C protease (homemade), the protein was further purified using a heparin column (HiTrap Heparin HP 5 ml, GE Healthcare), followed by size exclusion chromatography (Superdex 75 16/60, GE Healthcare) in 20 mM Na-phosphate (pH 7.0), 300 mM NaCl and 2 mM dithiothreitol (DTT).
(§2) For the ITC measurements and the competition assays shown in Figs 4 and 5d–g, the 4E-BP peptides corresponding to the canonical (C) motifs, the combined (C+NC) motifs or L+NC were expressed with an HRV3C cleavable N-terminal MBP-tag and a non-cleavable C-terminal GB1 domain. The cells were lysed by sonication in lysis buffer containing 50 mM HEPES (pH 7.2), 300 mM NaCl and 2 mM DTT. The proteins were purified from the cleared lysates using amylose resin (New England Biolabs) followed by the cleavage of the MBP tag with HRV3C protease overnight at 4 °C. The proteins were further purified by size exclusion chromatography (Superdex 75 16/60, GE Healthcare) in 20 mM Na-phosphate (pH 7.0), 300 mM NaCl and 2 mM DTT. For the eIF4G fragment (residues 578–650) the MBP was removed after cleavage with TEV protease through an additional anion exchange chromatography (HiTrap Q HP 5 ml, GE Healthcare) before the final gel filtration.
(§3) The ITC experiments were performed using a VP-ITC microcalorimeter (MicroCal) at 20 °C. The solution of eIF4E (residues 69–248, WT or mutant: 1–20 μM) in the calorimetric cell was titrated with tenfold concentrated solutions of GB1-stabilized peptides corresponding to 4E-BPs C+NC (10 μM), C (50 μM), L+NC (100 μM CUP, 200 μM Thor and 4E-T) or eIF4G (residues 578–650, 20 μM) that were dissolved in the same buffer (20 mM Na-phosphate (pH 7.0) and 150 mM NaCl). The titration experiments consisted of an initial injection of 2 μl followed by 28 injections of 10 μl at an interval of 240 s. Each binding experiment was repeated twice. The thermodynamic parameters were estimated using a one-site binding model (Origin version 7.0), whereby the datapoint of the first injection was removed for the analysis.
mutant (residues 69-248) and CUP (a), Thor (b), 4E-T (c) and eIF4G (d) peptides. The
measurements were performed as described in Supplementary Fig. 3. The solutions
contained the 4E-BP C+NC peptides (10 µM) and 20 µM for the eIF4G peptide. The eIF4E
II-AA mutant concentration in the calorimetric cell was 5 µM.

[2] = molecular target: T2, Dm eIF4E (residues 69–248, WT) (Drosophila melanogaster, UniProt P48598); assay: ITC, binding to eIF4E (WT, residues 69–248); details: for entropic penalty (in words): bipartite regions; for TΔS / ΔG / Molar ratio / ΔH: eIF4E WT (69–248), pH 7.0, nb = no binding; for TΔS / ΔG / Kd / Molar ratio / ΔH: 20 °C; for Kd: VP-ITC, 20 mM Na-phosphate (pH 7.0), 150 mM NaCl, GB1-fused peptides (C+NC 10 μM, C 50 μM, L+NC 100 μM CUP or 200 μM Thor and 4E-T, eIF4G 20 μM) into eIF4E WT 1–20 μM, one-site model, each experiment repeated twice, nb = no binding
T2 construct: The truncated His6-eIF4E (residues 69–248) that was used in the ITC experiments; His6 (N, cleaved yes); made in house; host or cells: E. coli BL21 Star (DE3)
T2 sequence (P48598 69-248 isoform P48598-2): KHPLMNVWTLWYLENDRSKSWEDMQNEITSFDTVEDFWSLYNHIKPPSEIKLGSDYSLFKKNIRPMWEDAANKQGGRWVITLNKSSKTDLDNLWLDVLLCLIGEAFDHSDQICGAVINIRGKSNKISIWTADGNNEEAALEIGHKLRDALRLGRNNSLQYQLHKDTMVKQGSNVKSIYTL
Procedure: as §1, §2, §3
(d) minimal regions for binding to eIF4E (wild-type (WT), residues 69–248). The top panels represent the raw data (μcal sec−1) whereas the bottom panels show the integrated data (kcal mole−1 of injectant) of heat changes that were best-fitted using a one-site binding model. The thermodynamic parameters correspond to heat changes that were detected when 4E-BPs (10 µM) or eIF4G (20 µM) were injected into the calorimetric cell (1.4 mL) containing 1 µM (a,b,c) or 2 µM (d) eIF4E.
Supplementary Figure 4. Thermodynamic parameters for the interaction of eIF4E with 4E-BP peptides. (a–f) ITC profiles for the interaction of eIF4E (WT, residues 69-248) and CUP (a,d), Thor (b,e) and 4E-T (c,f) peptides containing only the canonical motifs (a–c) or the L+NC regions (d–f). The measurements were performed as described in Supplementary
Fig. 3. The solutions contained the peptides corresponding to the canonical motifs (50 µM) or the L+NC regions (100 µM for CUP and 200 µM for Thor and 4E-T). The eIF4E concentration in the calorimetric cell was 5 µM (for the C peptides), 10 µM (for CUP L+NC) and 20 µM (for Thor and 4E-T L+NC peptides).
(1 picture or pasted object on this page, not shown here)

[3] = eIF4E II-AA (69–248), 20 °C, pH 7.0

Row | Substance | affinity for eIF4E II-AA mutant relative to WT (in words) [1] | TΔS [1, 3] [kcal/mol] | ΔG [1, 3] [kcal/mol] | entropic penalty (in words) ([2]; eIF4E WT) | TΔS [2] [kcal/mol] | ΔG [2] [kcal/mol] | Kd [2] [nM] | Molar ratio [2] | ΔH [2] [kcal/mol] | affinity of the 4E-T C peptide relative to CUP and Thor C peptides ([2]; eIF4E WT, C motif peptides) | Kd ([1]; VP-ITC, 20 °C, 20 mM Na-phosphate (pH 7.0), 150 mM NaCl, GB1-fused C+NC peptides (10 μM) or eIF4G (20 μM) into eIF4E II-AA 5 μM, one-site model, each experiment repeated twice) [nM] | ΔH [1, 3] [kcal/mol]
1 | 4E-T C+NC: 4E-T residues 9–44, eIF4E-binding region short, C-terminal GB1 | not significantly affected | 2.16 | -10.80 | lower entropic penalties | -11.7 | -11.11 |  |  |  |  |  | 
2 | 4E-T C: 4E-T residues 9–21, canonical motif |  |  |  |  | -8.16 | -10.45 | 16 | 0.95±0.01 | -18.6 ± 0.7 | approximately one and two orders of magnitude higher than those of the CUP and Thor peptides, respectively |  | 
3 | CUP C+NC: CUP residues 325–376, eIF4E-binding region short, C-terminal GB1 (KSYTRSRLMDIRNGMFNALMHRSKESFVMPRIATCDDIELEGRLRRMNIWRT-GB1; UniProt Q9VMA3 325-376, looked up, fragment) | reduced by one and two orders of magnitude, respectively | 8.79 | -9.84 | highest entropic penalty | -23.9 | -10.78 | 9.1 | 1.05±0.02 | -34.5 ± 0.35 |  | 50 | -18.6 ± 0.7
4 | Thor C+NC: Thor residues 50–83, eIF4E-binding region short, C-terminal GB1 (TKLIYERAFMKNLRGSPLSQTPPSNVPSCLLRGT-GB1; UniProt Q9XZ56 50-83, looked up, fragment) | reduced by one and two orders of magnitude, respectively | -0.91 | -8.46 | lower entropic penalties | -4.9 | -11.87 |  |  |  |  |  | 
5 | Thor C: Thor residues 50–63, canonical motif |  |  |  |  | -2.24 |  |  |  |  |  |  | 
